The subject of data set [1] is CC[C@H](C)[C@H](N)C(=O)O. Briefly: cells, lysate or membranes named. The settings on record: pH 7.5.
For data set [2], the target named is TB IleRS (M. tuberculosis isoleucyl-tRNA synthetase) (Mycobacterium tuberculosis, UniProt P9WFV3). Description: tRNA charging (aminoacylation) assay, sensitivity of TB IleRS to PMA. The class given is biochemical. Conditions: concentrations of up to 250 μM. The method, then: The sensitivity of the TB IleRS for the drug pseudomonic acid A (PMA; a specific inhibitor of some prokaryotic IleRS enzymes) was tested.
TB IleRS (M. tuberculosis isoleucyl-tRNA synthetase), sequence (P9WFV3 2-1032): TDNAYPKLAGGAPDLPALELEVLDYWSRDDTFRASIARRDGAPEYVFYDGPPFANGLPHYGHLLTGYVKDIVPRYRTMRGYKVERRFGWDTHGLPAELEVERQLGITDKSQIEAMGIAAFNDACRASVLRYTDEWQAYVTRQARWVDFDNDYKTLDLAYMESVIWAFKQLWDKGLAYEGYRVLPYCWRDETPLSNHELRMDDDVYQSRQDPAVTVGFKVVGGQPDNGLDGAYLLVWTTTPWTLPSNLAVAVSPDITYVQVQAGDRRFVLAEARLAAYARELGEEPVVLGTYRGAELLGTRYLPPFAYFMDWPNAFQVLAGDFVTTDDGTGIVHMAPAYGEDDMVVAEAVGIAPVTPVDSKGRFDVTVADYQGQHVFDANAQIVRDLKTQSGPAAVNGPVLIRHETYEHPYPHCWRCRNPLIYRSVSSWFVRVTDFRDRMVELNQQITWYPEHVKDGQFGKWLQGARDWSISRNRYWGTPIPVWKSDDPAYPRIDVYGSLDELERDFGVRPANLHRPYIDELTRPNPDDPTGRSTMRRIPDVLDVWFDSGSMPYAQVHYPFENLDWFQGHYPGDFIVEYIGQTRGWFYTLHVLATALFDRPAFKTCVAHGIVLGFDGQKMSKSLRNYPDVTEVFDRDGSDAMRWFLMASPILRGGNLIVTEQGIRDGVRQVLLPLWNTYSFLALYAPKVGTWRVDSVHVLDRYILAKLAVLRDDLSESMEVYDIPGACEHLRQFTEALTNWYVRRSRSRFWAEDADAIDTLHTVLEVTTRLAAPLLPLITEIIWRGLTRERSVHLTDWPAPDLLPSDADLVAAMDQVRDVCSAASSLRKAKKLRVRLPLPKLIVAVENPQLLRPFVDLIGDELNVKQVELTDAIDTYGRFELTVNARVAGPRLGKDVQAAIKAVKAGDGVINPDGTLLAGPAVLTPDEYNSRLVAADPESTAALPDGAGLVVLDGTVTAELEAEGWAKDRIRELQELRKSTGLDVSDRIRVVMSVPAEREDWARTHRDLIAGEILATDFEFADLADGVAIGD
The conditions of the charging assay were as follows: At time zero, 10 μl of crude extract or purified protein was added to a reaction mixture containing 50 mM HEPES, pH 7.5, 8 mM MgCl2, 20 μM tritiated isoleucine (New England Nuclear) with a specific activity of 2200 cpm/pmol, 10 mM KF, 4 mM ATP, and 0.1 mM total tRNA from either E. coli (Sigma) or yeast (S. cerevisiae, Boehringer-Mannheim Biochemicals). At various times, 10-20 μl of the reaction were withdrawn, spotted onto Whatman 3 MM cellolose filter diskettes, and the reaction was quenched by placing the filters in 5% ice cold TCA (trichloroacetic acid). Diskettes were washed three times with ice cold 5% TCA, once with 5% ice cold ethanol, once with ether, and air dried. The amount of [^3 H]-isoleucine incorporated into tRNA bound to the filter was determined by scintillation counting in 5 mls Betafluor (Packard 1600 TR scintillation counter).

The term Km denotes the substrate concentration at which the rate is half of its maximum. For “purified TB GST-IleRS fusion protein with or without thrombin cleavage (Mycobacterium tuberculosis H37Rv)”, the Km in data set [1] came to 1.1 ± 0.2 µM.

With `C/C(=C\C(=O)OCCCCCCCCC(=O)O)C[C@@H]1OC[C@H](C[C@@H]2O[C@H]2[C@@H](C)[C@H](C)O)[C@@H](O)[C@H]1O` [PMA, pseudomonic acid A], the “inhibition of the charging activity of the enzyme” value in data set [2] was “did not inhibit”.

The values above are taken from patent publication US5756327A, “Recombinant mycobacterial isoleucyl-tRNA synthetase genes, tester strains and assays” (priority 1995, dated 1998).
